Where two headings read alike, the source gives them in different places.
What was measured:
[1] = Type II Galβ(1,4)GlcNAc; literature refs 34, 37; read-out: Km reported; cited from earlier work
[2] = Type I Galβ(1,3)GlcNAc; literature refs 34, 35; read-out: Km reported; cited from earlier work
[3] = Type III Galβ(1,3)GalNAc; literature ref 34; read-out: Km reported; cited from earlier work
[4] = Enzyme kinetics, apparent Km, Type I substrate; type: biochemical; conditions: Type I Galβ(1,3)GlcNAc; lysates of transfected COS cells
Description: (§1) Cells were washed twice with phosphate buffered saline and lysed in either 1% Triton X100/100 mM Tris pH7.0 or 1% Triton X100/100 mM sodium cacodylate pH 6.5/25 mM MnCl2 at 4° C. for 30 min, lysates centrifuged and the supernatant collected and stored at −70° C. Protein concentration was determined by the Bradford test, using bovine serum albumin as a standard; 5-20 μg of cell extract was used per transferase assay. The assay for α-1,2 fucosyltransferase involved mixing cell extracts and acceptor (75 mM pheny-β-Dgalactoside (Sigma)) in 50 μl 50 mM MOPS (3-[N-Morpholino]propanesulphonic acid) pH 6.5; 20 mM MnCl2; 5 mM ATP; 3 μM GDP[^14C]-Fuc (specific activity 287 mCi/mmol, Amersham International plc, Amersham, UK) and incubation for 2 h at 37° C. The reaction was terminated by the addition of ethanol, and the incorporated ^14C-Fuc determined by liquid scintillation counting after separation in Sep-Pak C18 cartridges (Waters-Millipore, Millford, Mass.). In all cases the parallel reactions were performed in the absence of added acceptor molecules, to allow for the calculation of specific incorporation.
(§2) Cell lysates prepared from COS cells transfected in the manner described in Example 1 with pFUT2 (pig Se), pFUT1 (pig H transferase), or with vector alone were assayed for α(1,2)-fucosyltransferase activity, and the kinetic values were calculated. […]

[5] = Enzyme kinetics, apparent Km, Type II substrate; type: biochemical; conditions: Type II Galβ(1,4)GlcNAc; lysates of transfected COS cells
Description: as §1, §2

[6] = Enzyme kinetics, apparent Km, lactose; type: biochemical; conditions: Lactose Galβ(1,4)Glc; lysates of transfected COS cells
Description: as §1, §2

[7] = Enzyme kinetics, apparent Km, Type IV substrate; type: biochemical; conditions: Type IV Galβ(1,4)Gal; lysates of transfected COS cells
Description: as §1, §2

[8] = Enzyme kinetics, apparent Km, Type III substrate; type: biochemical; conditions: Type III Galβ(1,3)GalNAc; lysates of transfected COS cells
Description: as §1, §2

[9] = test system: α(1,2)-fucosyltransferase; experiment: α(1,2)-fucosyltransferase activity in lysates of transfected COS cells; type: biochemical, pig; conditions: mock-transfected baseline 1.1
Description: as §1
Cell lysates prepared from COS cells transfected with pFUT2 and pFUT1 were assayed for α(1,2)-fucosyltransferase activity. […] The enzyme activity measured in these lysates reflects the expression of H substance on the cell surface as shown in Example 2.

Row | Molecule | Km [1] [mM] | Km [2] [mM] | Km [3] [mM] | Km [4] [mM] | Km [5] [mM] | Km [6] [mM] | Km [7] [mM] | Km [8] [mM] | α(1,2)-fucosyltransferase activity [9] [nmol/h/mg]
1 | rabbit FUT1: rabbit α(1,2)-fucosyltransferase FUT1, literature homologue (protein, UniProt Q10979 1-373, looked up) Galactoside …: MWPPSRRQLCLAFLLVCALSAFSFLLHLHQDLFRNGLALSLPCLERQPVPAPVAIVCLPVTSPASNASSCAGRPAAPSGIWTIHPDGRFGNQMGQYATLLALAQLNGRRAFILPAMHAALAPVFRITLPVLAPEVNRRTSWKQLLLHDWMSEEYSRLEDPFLKFTGFPCSWTFFHHVREQIRREFTLHDHLREEAQRLLGKLRLGRTGARPRTFVGVHVRRGDYLQVMPQRWKGVVGDRAYLQQAMDWFRARHEAPIFVVTSNGMKWCWENIDASRGDVVFAGNGLESSPAKDFALLTQCNHTVMTIGTFGFWAAYLAGGDTVYLANFTLPDSEFLKIFKPEAAFLPEWVGINADLSPVRTLSGSWRPWRFLG | 4.2 | 3.1 | 5.8 |  |  |  |  |  | 
2 | rabbit FUT2: rabbit α(1,2)-fucosyltransferase FUT2, literature homologue (protein, UniProt Q10983 1-354, looked up) Galactoside …: MRFAPDYVLCPPTATRRLRATHPSVSTIYFLFTIFVVSTVFHCHQRLALVPAPWAYSARVVVVPGHLPREGMWTINAMGRLGNQMGEYATLYALAKENGRPAYIPAQMHSTLAPIFRISLPVLHSSTASRVPWQNYHLNDWMEERYRHIPVPYVRLTGYPCSWTFYHHLRHEILREFTLHDHVREEAQAFLRGLRVNGSRPSTFVGVHVRRGDYVRVMPQVWKGVVADRGYLEQALDWFRAPTAPPVFVVTSNGMAWCRENIDASRGDVVFAGNGLEGSPAKDFALLTQCNHTVMTIGTFGFWAAYLTGGDTVYLANYTAPDSPFHLVFKPEAAFLPEWVGITANMGRALWSGL | 6.7 | 1.5 | 1 |  |  |  |  |  | 
3 | human FUT1: human α(1,2)-fucosyltransferase FUT1 (H transferase), literature homologue (protein, UniProt P19526 1-365, looked up) Galactoside …: MWLRSHRQLCLAFLLVCVLSVIFFLHIHQDSFPHGLGLSILCPDRRLVTPPVAIFCLPGTAMGPNASSSCPQHPASLSGTWTVYPNGRFGNQMGQYATLLALAQLNGRRAFILPAMHAALAPVFRITLPVLAPEVDSRTPWRELQLHDWMSEEYADLRDPFLKLSGFPCSWTFFHHLREQIRREFTLHDHLREEAQSVLGQLRLGRTGDRPRTFVGVHVRRGDYLQVMPQRWKGVVGDSAYLRQAMDWFRARHEAPVFVVTSNGMEWCKENIDTSQGDVTFAGDGQEATPWKDFALLTQCNHTIMTIGTFGFWAAYLAGGDTVYLANFTLPDSEFLKIFKPEAAFLPEWVGINADLSPLWTLAKP | 1.9 | 2 |  |  |  |  |  |  | 
4 | human FUT2: human α(1,2)-fucosyltransferase FUT2 (secretor), literature homologue (protein, UniProt Q10981 1-343, looked up) Galactoside …: MLVVQMPFSFPMAHFILFVFTVSTIFHVQQRLAKIQAMWELPVQIPVLASTSKALGPSQLRGMWTINAIGRLGNQMGEYATLYALAKMNGRPAFIPAQMHSTLAPIFRITLPVLHSATASRIPWQNYHLNDWMEEEYRHIPGEYVRFTGYPCSWTFYHHLRQEILQEFTLHDHVREEAQKFLRGLQVNGSRPGTFVGVHVRRGDYVHVMPKVWKGVVADRRYLQQALDWFRARYSSLIFVVTSNGMAWCRENIDTSHGDVVFAGDGIEGSPAKDFALLTQCNHTIMTIGTFGIWAAYLTGGDTIYLANYTLPDSPFLKIFKPEAAFLPEWTGIAADLSPLLKH | 5.7 | 1 |  |  |  |  |  |  | 
5 | pFUT2: pig Secretor type α(1,2)-fucosyltransferase expressed in COS cells; label also used for the plasmid encoding it (protein, UniProt Q10982 1-340, looked up) Galactoside …: MLSMQASFFFPTGPFILFVFTASTIFHLQQRMVKIQPTWELQMVTQVTTESPSSPQLKGMWTINAIGRLGNQMGEYATLYALARMNGRPAFIPPEMHSTLAPIFRITLPVLHASTARRIPWQNYHLNDWMEERYRHIPGEYVRLTGYPCSWTFYHHLRTEILREFTLHNHVREEAQDFLRGLRVNGSRPSTYVGVHVRRGDYVHVMPNVWKGVVADRRYLEQALDWFRARYRSPVFVVSSNGMAWCRENINASRGDVVFAGNGIEGSPAKDFALLTQCNHTVMTIGTFGIWAAYLAGGETIYLANYTLPDSPFLKLFKPEAAFLPEWIGIEADLSPLLKH |  |  |  | 1.3 | 4.4 | 7.4 | 1.5 | 0.2 | 151.1
6 | pFUT1: pig H type α(1,2)-fucosyltransferase expressed in COS cells; label also used for the plasmid encoding it (protein, UniProt Q29043 1-365, looked up) Galactoside …: MWVPSRRHLCLTFLLVCVLAAIFFLNVYQDLFYSGLDLLALCPDHNVVSSPVAIFCLAGTPVHPNASDSCPKHPASLSGTWTIYPDGRFGNQMGQYATLLALAQLNGRQAFIQPAMHAVLAPVFRITLPVLAPEVDRHAPWRELELHDWMSEDYAHLKEPWLKLTGFPCSWTFFHHLREQIRSEFTLHDHLRQEAQGVLSQFRLPRTGDRPSTFVGVHVRRGDYLRVMPKRWKGVVGDGAYLQQAMDWFRARYEAPVFVVTSNGMEWCRKNIDTSRGDVIFAGDGREAAPARDFALLVQCNHTIMTIGTFGFWAAYLAGGDTIYLANFTLPTSSFLKIFKPEAAFLPEWVGINADLSPLQMLAGP |  |  |  | 6 | 3.7 | 1.9 | 4.2 | 14 | 140.0
